From patent publication US20170137818, “APTAMER INHIBITING BIOLOGICAL ACTIVITY OF AUTOTAXIN BY BINDING WITH AUTOTAXIN, AND USE THEREOF” (RIBOMIC INC., published 2017) come the findings set out here.

B1: 12(5) (ssDNA)
DNA: CCTGGACGGAACCAGAATACTTTTGGTCTCCAGG
modifications: 2'-OMe T23,T24
B2: 12(30) (ssDNA)
DNA: B1 DNA
modifications: 2'-OMe G25
B3: 12(21) (ssDNA)
DNA: B1 DNA
modifications: 2'-OMe G4,G5
B4: 12(16) (ssDNA)
DNA: B1 DNA
modifications: 2'-OMe A17
B5: 12(15) (ssDNA)
DNA: B1 DNA
modifications: 2'-OMe A10
B6: 12(14) (ssDNA)
DNA: B1 DNA
modifications: 2'-OMe G9
B7: 12(25) (ssDNA)
DNA: B1 DNA
modifications: 2'-OMe C1,C2,T3,G4,G5,C7,G9,C12,C13,A14,G15,T18,A19,C20,A32,G33,G34; 5' idT, 3' idT
B8: 12(31) (ssDNA)
DNA: B1 DNA
modifications: 2'-OMe C12
B9: 12(11) (ssDNA)
DNA: B1 DNA
modifications: 2'-OMe T27
B10: 12(33) (ssDNA)
DNA: B1 DNA
modifications: 2'-OMe T24
B11: 12(23) (ssDNA)
DNA: B1 DNA
modifications: 5' 40 kDa PEG (GL2-400GS2) via ssH linker, 3' idT
B12: 12(27) (ssDNA)
DNA: B1 DNA
modifications: 2'-OMe A16
B13: 12(9) (ssDNA)
DNA: B1 DNA
modifications: 2'-OMe T29
B14: 12(41) (ssDNA)
DNA: B1 DNA
modifications: 2'-OMe C1
B15: 12(39) (ssDNA)
DNA: B1 DNA
modifications: 2'-OMe T3
B16: 12(34) (ssDNA)
DNA: B1 DNA
modifications: 2'-OMe T23
B17: 12(36) (ssDNA)
DNA: B1 DNA
modifications: 2'-OMe G5
B18: 12(18) (ssDNA)
DNA: B1 DNA
modifications: 2'-OMe A19
B19: 12(32) (ssDNA)
DNA: B1 DNA
modifications: 2'-OMe C13
B20: 12(29) (ssDNA)
DNA: B1 DNA
modifications: 2'-OMe G26
B21: 12(4) (ssDNA)
DNA: B1 DNA
modifications: 2'-OMe C12,C13
B22: 12(19) (ssDNA)
DNA: B1 DNA
modifications: 2'-OMe C20
B23: 12(8) (ssDNA)
DNA: B1 DNA
modifications: 2'-OMe A6
B24: 12(10) (ssDNA)
DNA: B1 DNA
modifications: 2'-OMe A11
B25: 12(22) (ssDNA)
DNA: B1 DNA
modifications: 5' idT, 3' idT
B26: 12(17) (ssDNA)
DNA: B1 DNA
modifications: 2'-OMe T18
B27: 12(3) (ssDNA)
DNA: B1 DNA
modifications: 2'-OMe A32,G33,G34
B28: 12(38) (ssDNA)
DNA: B1 DNA
modifications: 2'-OMe C31
B29: 12(13) (ssDNA)
DNA: B1 DNA
modifications: 2'-OMe G8
B30: 12(12) (ssDNA)
DNA: B1 DNA
modifications: 2'-OMe C7
B31: 12(35) (ssDNA)
DNA: B1 DNA
modifications: 2'-OMe G4
B32: 12(26) (ssDNA)
DNA: B1 DNA
modifications: 2'-OMe C28
B33: 12(6) (ssDNA)
DNA: B1 DNA
modifications: 2'-OMe G25,G26
B34: 12(24) (ssDNA)
DNA: B1 DNA
modifications: 2'-OMe C7,G9,A14,G15,A19,C20,A32,G33,G34; 5' idT, 3' idT
B35: 12(7) (ssDNA)
DNA: B1 DNA
modifications: 2'-OMe A14,G15
B36: 12(40) (ssDNA)
DNA: B1 DNA
modifications: 2'-OMe C2
B37: 12(2) (ssDNA)
DNA: B1 DNA
modifications: 2'-OMe C30,C31
B38: 12(20) (ssDNA)
DNA: B1 DNA
modifications: 2'-OMe T21
B39: 12(28) (ssDNA)
DNA: B1 DNA
modifications: 2'-OMe T22
B40: 12(37) (ssDNA)
DNA: B1 DNA
modifications: 2'-OMe C30
B41: 12(130) (ssDNA)
DNA: B1 DNA
modifications: 2'-OMe C7,G9,A14,G15,A19,C20,A32,G33,G34; P-methyl C1; idT 5' and 3'
B42: 12(129) (ssDNA)
DNA: B1 DNA
modifications: 2'-OMe C7,G9,A14,G15,A19,C20,A32,G33,G34; P-methyl T3; idT 5' and 3'
B43: SEQ 11 aptamer (ssDNA)
DNA: GTACTCATGGACGGAACCAGAATACTTTTGGTCTCCATTGAGTAC
B44: SEQ 10 aptamer (ssDNA)
DNA: GTGGTCTAGCTGTACTCGCCGGAACCGTACTATGGTCGCGTTGTATGACGCTTGTATCCACAGTCAACGAGCTA
B45: SEQ 4 aptamer (ssDNA)
DNA: GTGGTCTAGCTGTACTCTCCGGAACCAGAGCAATTTGGTCGAGCGCTATCGGATGGTCCACAGTCAACGAGCTA
B46: SEQ 21 aptamer (ssDNA)
DNA: ACACTCACAGGCGCTGGCCACCACTGCACCGGAACCGCGAATGTGGTCGTGCATGGCCGCTAGT
B47: SEQ 22 aptamer (ssDNA)
DNA: ACACTCACAGGCGCTGGCCGGAACCGTGCATATGGTCGCCAGCACATCGTGCATGGCCGCTAGT
B48: SEQ 6 aptamer (ssDNA)
DNA: GTGGTCTAGCTGTACTCGGAACCGTACTCAACGGTCAGTACCTTTGCGCCGCAGCAAGCCACAGTCAACGAGCTA
B49: SEQ 5 aptamer (ssDNA)
DNA: GTGGTCTAGCTGTACTCATGGACGGAACCAGAATACTTTTGGTCTCCATTGAGTACGCCACAGTCAACGAGCTA
B50: SEQ 12 aptamer (ssDNA)
DNA: B1 DNA
B51: SEQ 16 aptamer (ssDNA)
DNA: CTGGACGGAACCAGAATACTTTTGGTCTCCAG
B52: SEQ 27 aptamer (ssDNA)
DNA: TACGCTCGGAACCGAGGCAATTGGTCAGCGTG
B53: SEQ 25 aptamer (ssDNA)
DNA: ACACTCACAGGCGCTGGCGACGTCGGAACCGTGTACCATGGTCACGTCGTGCATGGCCGCTAGT
B54: SEQ 29 aptamer (ssDNA)
DNA: GCTGGCCGGAACCGTGCATATGGTCGCCAGC

For the first data set, the target named is autotaxin (endogenous, human pooled serum) (Homo sapiens, UniProt Q13822 Q13822:36-863). Description: inhibition; LPA production in serum, 5.0 uM.
As to B1, the activity was 15 % inhibition.

As to B2, the activity was determined as 75 % inhibition.

Regarding B3, the activity amounted to 84 % inhibition.

For the molecule B4, the activity came to 83 % inhibition.

Turning to B5, the activity stood at 68 % inhibition.

As for B6, the activity came to 95 % inhibition.

In turn, B7 showed an activity of 84 % inhibition.

In turn, B8 gave an activity of 87 % inhibition.

B9 yielded an activity of 38 % inhibition.

For the molecule B10, the activity was found to be 62 % inhibition.

In turn, B11 gave an activity of 90 % inhibition.

Molecule B12 gave an activity of 86 % inhibition.

B13 displayed an activity of 78 % inhibition.

B14 displayed an activity of 85 % inhibition.

B15 yielded an activity of 85 % inhibition.

The molecule B16 registered an activity of 55 % inhibition.

Consider B17, for which the activity worked out at 84 % inhibition.

Molecule B18 showed an activity of 93 % inhibition.

B19 yielded an activity of 85 % inhibition.

B20: the activity was 84 % inhibition.

Molecule B21 displayed an activity of 82 % inhibition.

B22 displayed an activity of 90 % inhibition.

Regarding B23, the activity was found to be 69 % inhibition.

B24 registered an activity of 26 % inhibition.

For the molecule B25, the activity is 91 % inhibition.

In the case of B26, the activity worked out at 83 % inhibition.

B27 came in with an activity of 92 % inhibition.

On to B28, for which the activity was 83 % inhibition.

The molecule B29 registered an activity of 74 % inhibition.

Consider B30, for which the activity was 94 % inhibition.

For the molecule B31, the activity amounted to 82 % inhibition.

B32 displayed an activity of 35 % inhibition.

B33 showed an activity of 63 % inhibition.

As for B34, the activity came out at 96 % inhibition.

B35 gave an activity of 88 % inhibition.

With B36, the activity was 84 % inhibition.

In turn, B37 showed an activity of 80 % inhibition.

The molecule B38 registered an activity of 76 % inhibition.

B39 gave an activity of 64 % inhibition.

In turn, B40 displayed an activity of 85 % inhibition.

The next data set has as its target T1, autotaxin (ENPP2/NPP2) (Homo sapiens, UniProt Q13822 Q13822:36-863). Description: inhibition; LPA production, 0.10 uM aptamer, ~92% serum, 37C 3 h.
Consider B41, for which the activity amounted to 77 % inhibition.

In the case of B42, the activity is 73 % inhibition.

In a further data set the target is T1, autotaxin (ENPP2/NPP2). Description: inhibition; NPP2 assay, 37 C.
The molecule B43 yielded an IC50 of 12 nM.

B44 showed a half-inhibitory concentration (IC50) of 21 nM.

As for B45, inhibition was half-maximal at 16 nM (IC50).

B46 yielded an IC50 of 28 nM.

Molecule B47 showed a concentration for half-maximal inhibition (IC50) of 30 nM.

Molecule B48 displayed a half-maximal inhibitory concentration (IC50) of 20 nM.

On to B49, for which half-maximal inhibition (IC50) was put at 11 nM.

As to B50, the IC50 is 12 nM.

For B51, the half-inhibitory concentration (IC50) was 18 nM.

For the molecule B52, the IC50 stood at 24 nM.

B53: the IC50 is 31 nM.

For the molecule B54, the IC50 stood at 11 nM.
